# Reference: paper PMC7768477 (Antibodies, 2020)
# What was measured:
# [1] = target: T1, Lassa NPc (C-terminal portion of NP encoding residues 341-569) (Lassa virus lineage IV, strain Josiah, UniProt P13699); experiment: SPR; ProteOn XPR36; […] (20 ug/mL in 10 mM sodium acetate pH 5.0); […]; settings: both partners purified
# T1 construct: source: bought: Zalgen (recombinant)
# [2] = target: T2, Lassa NPn (N-terminal portion of NP encoding residues 1-340) (Lassa virus lineage IV, strain Josiah, UniProt P13699); experiment: SPR; ProteOn XPR36; […] (20 ug/mL in 10 mM sodium acetate pH 5.0); […]; Langmuir model; settings: both partners purified
# T2 construct: source: bought: Zalgen (recombinant)
# T2 sequence (P13699 1-340): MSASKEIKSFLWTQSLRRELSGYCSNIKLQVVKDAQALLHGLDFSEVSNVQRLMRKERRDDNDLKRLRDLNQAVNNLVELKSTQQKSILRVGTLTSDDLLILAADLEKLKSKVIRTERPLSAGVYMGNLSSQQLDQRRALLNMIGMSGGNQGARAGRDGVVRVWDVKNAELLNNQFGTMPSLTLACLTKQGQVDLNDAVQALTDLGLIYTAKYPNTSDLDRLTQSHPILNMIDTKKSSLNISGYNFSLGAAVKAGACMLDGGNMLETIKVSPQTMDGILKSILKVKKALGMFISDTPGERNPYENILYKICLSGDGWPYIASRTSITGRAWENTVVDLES
# T1 sequence (P13699 341-569): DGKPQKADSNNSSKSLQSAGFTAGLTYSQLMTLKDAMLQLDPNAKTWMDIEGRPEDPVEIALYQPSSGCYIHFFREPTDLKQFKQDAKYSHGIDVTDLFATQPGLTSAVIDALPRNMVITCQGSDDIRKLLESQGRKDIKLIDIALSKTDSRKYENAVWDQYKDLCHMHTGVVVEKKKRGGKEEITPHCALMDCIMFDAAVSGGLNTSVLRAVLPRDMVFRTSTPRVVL
Binder,binding result [1],Kd [2] [nM],koff [2] [s⁻¹],kon [2] [M⁻¹ s⁻¹],binding result [2]
"sdAb B5 (VHH, source: E. coli Tuner (DE3), periplasmic, purified (osmotic shock, IMAC, gel filtration)) VHH: EVQLQASGGGLAQPGGSLRLSCAASGFTLVYYGIGWFRQAPGKEREGVSCISSNDGSTYYADSVKGRFTISRDAAKNTVYLQMNSLKPEDTAVYYCATELGNTHRGSFFPNRRVERCRTDDFASWGQGTQVTVSS",no binding,19,0.0061,320000,
"sdAb F3 (VHH, source: E. coli Tuner (DE3), periplasmic, purified (osmotic shock, IMAC, gel filtration)) VHH: DVQLQASGGGLVQPGGSLRLSCAASGFTLVYYGIGWFRQAPGKEREGVSCISSYDGTTYYADSVKGRFTISRDNAKNTVYLQMNSLKPEDTAVYYCATELGNTHRGSYFPKQRVERCHTGDFASWGQGTQVTVSS",no binding,7.5,0.003,400000,
"sdAb E11 (VHH, source: E. coli Tuner (DE3), periplasmic, purified (osmotic shock, IMAC, gel filtration)) VHH: EVQLQASGGGLAQPGGSLRLSCAASGFTLVYYGIGWFRQAPGKEREGVSCISSNDGTTYYADSVKGRFTISRDNAKNTVYLQMNSLKPEDTAVYYCATELGNTHRGSYFPKQRVERCHTGDFASWGQGTQVTVSS",no binding,57,0.0076,150000,
"sdAb H6 (VHH, also called clone H6; Bt-H6; source: E. coli Tuner (DE3), periplasmic, purified (osmotic shock, IMAC, gel filtration)) VHH: DVQLQASGGGVVQPGGSLRLSCVASGFTLVYYGIGWFRQAPGKEREGVSCISSNDGSTYYADSVKGRFTISRDAAKNTVYLQMNSLKPEDTAVYYCATELGNTHRGSFFPNRRVKRCRTDDFASWGQGTQVTVSS",no binding,9.3,0.0057,610000,
"sdAb C7 (VHH, source: E. coli Tuner (DE3), periplasmic, purified (osmotic shock, IMAC, gel filtration)) VHH: EVQLQASGGGLVQPGGSLRLSCVASGFTLVYYGIGWFRQAPGKEREGVSCISSNDGSTYYADSVKGRFTISRDAAKNTMYLQMNSLKPEDTAVYYCATELGNTHRGSFFPNRRVERCRTDDFASWGQGTQVTVSS",no binding,7.5,0.0038,510000,
"sdAb G11 (VHH, source: E. coli Tuner (DE3), periplasmic, purified (osmotic shock, IMAC, gel filtration)) VHH: DVQLQASGGGLVQAGDSLTLSCAASGRTVSPYGVGWFRQAPGREREFVAALSRSGTFTAYADSVKGRFTISRDNAKNTVYLQMNSLKPDDTAVYHCAARSASSYYSTYRKEDDYHYWGQGTQVTVSS",no binding,184,0.07,380000,
"sdAb E10 (VHH, source: E. coli Tuner (DE3), periplasmic, purified (osmotic shock, IMAC, gel filtration)) VHH: DVQLQASGGGLVQAGASLRLSCAASGFTYTMGWFRQAPGQEREFVAAIARSGGTTYYTDSVKGRFTISRDNAKKTVFLQLNSLKPEDTAVYYCAADALPYSAQSMSTRNPGYWGQGTQVTVSS",no binding,69,0.13,1.9e+06,
"sdAb E1 (VHH, also called clone E1; source: E. coli Tuner (DE3), periplasmic, purified (osmotic shock, IMAC, gel filtration)) VHH: DVQLQASGGGLVQTGGSLRLSCENSGRALRIMGWFRQAPGKEREFVATINRNGESTYYSDSVKGRFTISRDNNKNTVYLQMNNLKPEDTGVYNCAADRPGPTQIKTRADDYDYWGEGTQVTVSS",no binding,,,,no binding
